Read-outs that look alike come from different tables or passages of the source.
T1: murine FcγRIV expressed on CHO cells (mouse, UniProt A0A0B4J1G0 21-249)
T1 construct: also called mCD16 (the murine form of FcγRIVa)
T1 sequence: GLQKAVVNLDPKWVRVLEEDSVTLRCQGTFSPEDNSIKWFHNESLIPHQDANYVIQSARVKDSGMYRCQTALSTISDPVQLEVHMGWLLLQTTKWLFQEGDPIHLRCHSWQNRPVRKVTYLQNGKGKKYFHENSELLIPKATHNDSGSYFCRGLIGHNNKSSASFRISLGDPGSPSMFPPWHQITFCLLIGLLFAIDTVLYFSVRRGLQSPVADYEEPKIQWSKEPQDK

T2: human TIGIT expressed on cells (human, UniProt Q495A1 22-244)
T2 construct: HEK 293 cells stably expressing human TIGIT, primary human T cells or Jurkat effector cells; the cell is named under assay; also called Human TIGIT HEK
T2 sequence: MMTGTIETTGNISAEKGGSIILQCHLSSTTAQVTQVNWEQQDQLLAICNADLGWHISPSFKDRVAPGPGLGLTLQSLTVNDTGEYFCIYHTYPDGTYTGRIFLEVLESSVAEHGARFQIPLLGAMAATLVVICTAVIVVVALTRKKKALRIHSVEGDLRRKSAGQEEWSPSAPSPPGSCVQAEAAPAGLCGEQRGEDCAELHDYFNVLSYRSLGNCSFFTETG

T3: monomeric human TIGIT (Sino Biological 10917-H08H) (human, UniProt Q495A1 22-138, biotinylated in the MSD-SET assay)
T3 construct: Bought protein; also called Human TIGIT monomer; Human TIGIT-His; not shown: His tag
T3 sequence: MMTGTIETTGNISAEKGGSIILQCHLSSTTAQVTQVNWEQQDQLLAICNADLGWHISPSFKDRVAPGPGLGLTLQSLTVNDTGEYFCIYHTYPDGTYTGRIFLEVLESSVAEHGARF

T4: recombinant dimeric human TIGIT-Fc (Acro Biosystems TIT-H5254) (human, UniProt Q495A1 22-141)
T4 construct: Bought protein; also called hTIGIT-Fc; not shown: Fc part of the bought fusion protein
T4 sequence: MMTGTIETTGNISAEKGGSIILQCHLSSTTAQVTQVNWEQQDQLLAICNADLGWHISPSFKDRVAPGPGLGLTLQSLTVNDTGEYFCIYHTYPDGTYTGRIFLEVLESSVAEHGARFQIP


Tests used:
[1] = target: T1, murine FcγRIV expressed on CHO cells; experiment: flow cytometry on CHO cells expressing mCD16 (murine FcγRIV), anti-mouse IgG FITC
Method: To assess the extent of altered FcγRIV binding, antibody affinity to FcγRIV expressed on CHO cells was determined by FACS using anti-mouse IgG FITC.

[2] = target: T5, cynomolgus monkey TIGIT expressed on cells (cynomolgus monkey); experiment: flow cytometry on HEK 293 cells expressing the target, MFI over parental HEK 293;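 note: bound antibody detected with PE-labelled anti-human IgG, 15 min on ice. FOB equals median fluorescence on TIGIT-positive cells divided by that on target-negative cells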
T5 construct: HEK 293 cells stably expressing cynomolgus monkey TIGIT or cynomolgus T cells; also called Cyno TIGIT HEK
T5 sequence (chain, as listed by the source limits assumed): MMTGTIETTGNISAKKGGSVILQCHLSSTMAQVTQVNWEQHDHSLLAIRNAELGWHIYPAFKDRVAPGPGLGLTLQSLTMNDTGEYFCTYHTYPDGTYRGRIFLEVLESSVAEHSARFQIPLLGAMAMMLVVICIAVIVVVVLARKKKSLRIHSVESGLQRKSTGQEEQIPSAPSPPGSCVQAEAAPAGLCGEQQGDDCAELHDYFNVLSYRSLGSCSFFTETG
Method: (§1) HEK 293 cells were engineered to stably express high levels of human, mouse or cynomolgus monkey TIGIT by lentiviral transduction. […] Cells were then washed twice with wash buffer and incubated with anti-human IgG conjugated to PE for 15 minutes on ice. Cells were then washed twice with wash buffer and analyzed by flow cytometry on a FACS Canto II instrument (BD Biosciences). Fold over background (FOB) was calculated as the median fluorescence intensity (MFI) of the anti-TIGIT clone bound to target-positive cells divided by the MFI of the anti-TIGIT clone bound to target-negative cells.

[3] = target: T2, human TIGIT expressed on cells; experiment: as above
Method: as §1

cyno TIGIT-Fc = target: T6, cyno TIGIT-Fc (cynomolgus monkey); experiment: BLI (ForteBio), IgG on sensor, avid
T6 construct: not shown: Fc part
T6 sequence (chain, as listed by the source limits assumed): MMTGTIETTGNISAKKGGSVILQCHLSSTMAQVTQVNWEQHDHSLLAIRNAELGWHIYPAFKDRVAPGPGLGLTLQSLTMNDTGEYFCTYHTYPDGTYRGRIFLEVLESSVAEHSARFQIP

[4] = target: T2, human TIGIT expressed on cells; experiment: flow cytometry titration, HEK 293 cells expressing human TIGIT
[5] = target: T3, monomeric human TIGIT (Sino Biological …); experiment: BLI (ForteBio), IgG on sensor, monovalent
Method: (§2) Briefly, ForteBio affinity measurements were performed by loading IgGs on-line onto AHQ sensors. Sensors were equilibrated off-line in assay buffer for 30 minutes and then monitored on-line for 60 seconds for baseline establishment. Sensors with loaded IgGs were exposed to 100 nM antigen (dimeric Fc-fusion antigen or monomeric antigen) for 3 minutes, and afterwards were transferred to assay buffer for 3 minutes for off-rate measurement. All binding and dissociation kinetics were analyzed using the 1:1 binding model.
The optimized antibodies were also tested for ligand blocking in a CD155 ligand competition assay, and for binding to human TIGIT HEK, cyno TIGIT HEK, mouse TIGIT HEK, and parental HEK cell lines, as described above.

[6] = target: T2, human TIGIT expressed on cells; experiment: flow cytometry competition with human CD112-Fc on 293-hTIGIT cells
[7] = target: T5, cynomolgus monkey TIGIT expressed on …; experiment: flow cytometry titration, HEK 293 cells expressing cynomolgus TIGIT
Method: (§3) HEK 293 cells were engineered to stably express high levels of human, mouse or cynomolgus monkey TIGIT by lentiviral transduction. […] Samples were analyzed on a CytoFLEX flow cytometer. Median fluorescence intensity of the FSC/SSC gated population was determined for each antibody concentration. NonLinear regression of Log(X) transformed data was used to generate EC50 values in GraphPad Prism 6.

[8] = target: T4, recombinant dimeric human TIGIT-Fc …; experiment: BLI (ForteBio Octet RED384), IgG on AHQ sensor, 100 nM antigen, 1:1 model
Method: as §2

[9] = target: T3, monomeric human TIGIT (Sino Biological …); experiment: as above
Method: as §2

[10] = target: T2, human TIGIT expressed on cells; experiment: flow cytometry competition with human CD155-Fc on 293-hTIGIT cells
[11] = target: T2, human TIGIT expressed on cells; experiment: flow cytometry titration, HEK 293 cells expressing human TIGIT; remark: listed apart in the source
Method: as §3

[12] = target: T5, cynomolgus monkey TIGIT expressed on …; experiment: flow cytometry titration, HEK 293 cells expressing cynomolgus TIGIT; remark: listed apart in the source
[13] = target: T2, human TIGIT expressed on cells; experiment: flow cytometry competition with hCD112-Fc-AlexaFluor647 on 293-hTIGIT cells; the axis 'Percent Blockade' falls as ligand signal is lost
Method: (§4) Samples were analyzed on a CytoFLEX flow cytometer. Median fluorescence intensity of the FSC/SSC gated population was determined for each antibody concentration. Percent blockade was calculated relative to the MFI of the no antibody control. NonLinear regression of Log(X) transformed data was performed in GraphPad Prism 6.

[14] = target: T2, human TIGIT expressed on cells; experiment: flow cytometry competition with hCD155-Fc-AlexaFluor647 on 293-hTIGIT cells; the axis 'Percent Blockade' falls as ligand signal is lost
Method: as §4

| Kd [1] | FOB (Fold Over Background) [2] | FOB (Fold Over Background) [3] | Kd (cyno TIGIT-Fc) | EC50 [4] | Kd [5] | IC50 (read off the curve) [6] | EC50 [7] | Kd [8] | Kd [9] | IC50 (read off the curve) [10] | EC50 [11] | EC50 [12] | IC50 (read off the curve) [13] | IC50 (read off the curve) [14] | Binder |
| --- | --- | --- | --- | --- | --- | --- | --- | --- | --- | --- | --- | --- | --- | --- | --- |
| 3330 nM | – | – | – | – | – | – | – | – | – | – | – | – | – | – | anti-TIGIT c13 mIgG2a LALA-PG (antibody, also called LALA TIGIT) heavy chain: QVQLVQSGAEVKKPGSSVKVSCKASGGTFSSYAISWVRQAPGQGLEWMGSIIPIFGTANYAQKFQGRVTITADESTSTAYMELSSLRSEDTAVYYCARGPSEVGAILGYVWFDPWGQGTLVTVSSAKTTAPSVYPLAPVCGDTTGSSVTLGCLVKGYFPEPVTLTWNSGSLSSGVHTFPAVLQSDLYTLSSSVTVTSSTWPSQSITCNVAHPASSTKVDKKIEPRGPTIKPCPPCKCPAPNAAGGPSVFIFPPKIKDVLMISLSPIVTCVVVDVSEDDPDVQISWFVNNVEVHTAQTQTHREDYNSTLRVVSALPIQHQDWMSGKEFKCKVNNKDLGAPIERTISKPKGSVRAPQVYVLPPPEEEMTKKQVTLTCMVTDFMPEDIYVEWTNNGKTELNYKNTEPVLDSDGSYFMYSKLRVEKKNWVERNSYSCSVVHEGLHNHHTTKSFSRTPGK light chain: not shown |
| – | 224 fold | 212 fold | 1.04 nM | 0.09 µg/mL | 2.63 nM | ~0.1 µg/mL | 0.1 µg/mL | 0.543 nM | 2.56 nM | ~0.1 µg/mL | 0.07 µg/mL | 0.13 µg/mL | ~0.1 µg/mL | ~0.1 µg/mL | Clone 13 (antibody, IgG1, V domains shown, also called anti-TIGIT clone 13; c13 hIgG1) VH: QVQLVQSGAEVKKPGSSVKVSCKASGGTFSSYAISWVRQAPGQGLEWMGSIIPIFGTANYAQKFQGRVTITADESTSTAYMELSSLRSEDTAVYYCARGPSEVGAILGYVWFDPWGQGTLVTVSS VL: not shown |

— patent publication US20230050440A1 (Seagen, published 2023)
